Measurements: patent publication US20240400708A1

Columns and labels:
[1] = target: feline FcRn complex (FcRn-α subunit and β-microglobulin) (feline); assay: SPR (Biacore), FcRn on SA chip, pH 6
[2] = target: feline FcRn complex (FcRn-α subunit and β-microglobulin) (feline); assay: SPR (Biacore), FcRn on SA chip, pH 7.4

Row | Binder | Kd [1] [nM] | Kd [2] [nM]
1 | feline IgG1a mutant ID No. 355: S252Y, S428M, S434F, T256M (antibody, part only; not given: variable domains and light chain, not shown: another chain or arm of the molecule) constant: ASTTAPSVFPLAPSCGTTSGATVALACLVLGYFPEPVTVSWNSGALTSGVHTFPAVLQASGLYSLSSMVTVPSSRWLSDTFTCNVAHPPSNTKVDKTVRKTDHPPGPKPCDCPKCPPPEMLGGPSIFIFPPKPKDTLYISRMPEVTCLVVDLGPDDSDVQITWFVDNTQVYTAKTSPREEQFNSTYRVVSVLPILHQDWLKGKEFKCKVNSKSLPSPIERTISKAKGQPHEPQVYVLPPAQEELSRNKVSVTCLIKSFHPPDIAVEWEITGQPEPENNYRTTPPQLDSDGTYFVYSKLSVDRSHWQRGNTYTCSVMHEALHFHHTQKSLTQSPGK | 0.0964 | 15.7
2 | feline IgG1a mutant ID No. 362: S252Y, S434R, D399M (antibody, part only; not given: Variable domains, not shown: another chain or arm of the molecule) constant: ASTTAPSVFPLAPSCGTTSGATVALACLVLGYFPEPVTVSWNSGALTSGVHTFPAVLQASGLYSLSSMVTVPSSRWLSDTFTCNVAHPPSNTKVDKTVRKTDHPPGPKPCDCPKCPPPEMLGGPSIFIFPPKPKDTLYISRTPEVTCLVVDLGPDDSDVQITWFVDNTQVYTAKTSPREEQFNSTYRVVSVLPILHQDWLKGKEFKCKVNSKSLPSPIERTISKAKGQPHEPQVYVLPPAQEELSRNKVSVTCLIKSFHPPDIAVEWEITGQPEPENNYRTTPPQLMSDGTYFVYSKLSVDRSHWQRGNTYTCSVSHEALHRHHTQKSLTQSPGK | 1.14 | 43.6
3 | feline IgG1a mutant ID No. 360: S252Y, S434R, D312H (antibody, part only; not given: Variable domains, not shown: another chain or arm of the molecule) constant: ASTTAPSVFPLAPSCGTTSGATVALACLVLGYFPEPVTVSWNSGALTSGVHTFPAVLQASGLYSLSSMVTVPSSRWLSDTFTCNVAHPPSNTKVDKTVRKTDHPPGPKPCDCPKCPPPEMLGGPSIFIFPPKPKDTLYISRTPEVTCLVVDLGPDDSDVQITWFVDNTQVYTAKTSPREEQFNSTYRVVSVLPILHQHWLKGKEFKCKVNSKSLPSPIERTISKAKGQPHEPQVYVLPPAQEELSRNKVSVTCLIKSFHPPDIAVEWEITGQPEPENNYRTTPPQLDSDGTYFVYSKLSVDRSHWQRGNTYTCSVSHEALHRHHTQKSLTQSPGK | 1.09 | 43.1

Continued, values first:

Row | Kd [1] [nM] | Kd [2] [nM] | Binder
4 | 0.0249 | 9.98 | feline IgG1a mutant ID No. 356: S252Y, S428M, S434F, T403R (antibody, part only; not given: Variable domains, not shown: another chain or arm of the molecule) constant: ASTTAPSVFPLAPSCGTTSGATVALACLVLGYFPEPVTVSWNSGALTSGVHTFPAVLQASGLYSLSSMVTVPSSRWLSDTFTCNVAHPPSNTKVDKTVRKTDHPPGPKPCDCPKCPPPEMLGGPSIFIFPPKPKDTLYISRTPEVTCLVVDLGPDDSDVQITWFVDNTQVYTAKTSPREEQFNSTYRVVSVLPILHQDWLKGKEFKCKVNSKSLPSPIERTISKAKGQPHEPQVYVLPPAQEELSRNKVSVTCLIKSFHPPDIAVEWEITGQPEPENNYRTTPPQLDSDGRYFVYSKLSVDRSHWQRGNTYTCSVMHEALHFHHTQKSLTQSPGK
5 | 0.188 | 20.7 | feline IgG1a mutant ID No. 361: S252Y, S434R, D312P (antibody, part only; not given: Variable domains, not shown: another chain or arm of the molecule) constant: ASTTAPSVFPLAPSCGTTSGATVALACLVLGYFPEPVTVSWNSGALTSGVHTFPAVLQASGLYSLSSMVTVPSSRWLSDTFTCNVAHPPSNTKVDKTVRKTDHPPGPKPCDCPKCPPPEMLGGPSIFIFPPKPKDTLYISRTPEVTCLVVDLGPDDSDVQITWFVDNTQVYTAKTSPREEQFNSTYRVVSVLPILHQPWLKGKEFKCKVNSKSLPSPIERTISKAKGQPHEPQVYVLPPAQEELSRNKVSVTCLIKSFHPPDIAVEWEITGQPEPENNYRTTPPQLDSDGTYFVYSKLSVDRSHWQRGNTYTCSVSHEALHRHHTQKSLTQSPGK
6 | 0.626 | 25.3 | feline IgG1a mutant ID No. 359: S252Y, S434R, D312A (antibody, part only; not given: variable domains and light chain, not shown: another chain or arm of the molecule) constant: ASTTAPSVFPLAPSCGTTSGATVALACLVLGYFPEPVTVSWNSGALTSGVHTFPAVLQASGLYSLSSMVTVPSSRWLSDTFTCNVAHPPSNTKVDKTVRKTDHPPGPKPCDCPKCPPPEMLGGPSIFIFPPKPKDTLYISRTPEVTCLVVDLGPDDSDVQITWFVDNTQVYTAKTSPREEQFNSTYRVVSVLPILHQAWLKGKEFKCKVNSKSLPSPIERTISKAKGQPHEPQVYVLPPAQEELSRNKVSVTCLIKSFHPPDIAVEWEITGQPEPENNYRTTPPQLDSDGTYFVYSKLSVDRSHWQRGNTYTCSVSHEALHRHHTQKSLTQSPGK
